# Experimental data as given in patent publication US20250136687A1 (SHANDONG SIMCERE BIOPHARMACEUTICAL, published 2025).
# Where two headings read alike, the source gives them in different places.
# B1: 40G5c-hIgG1 (antibody, V domains shown)
# VH: EVQLVQSGAEVKKPGASVKVSCKASGYTFTNYYIHWVRQAPGQGLEWIGWIYPGDGNTKYNEKFKGRATLTADTSTSTAYLELSSLRSEDTAVYYCARDSYSNYYFDYWGQGTLVTVSS
# VL: DIVMTQSPDSLAVSLGERATINCKSSQSLLNSRTRKNYLAWYQQKPGQPPKLLIYWASTRESGVPDRFSGSGSGTDFTLTISSLQAEDVAVYYCTQSFILRTFGQGTKVEIKR
# Columns and labels:
# [1] = molecular target: T1, recombinant human CD3ε-ECD His protein (human, UniProt P07766 23-126); assay: SPR (Biacore), antibody captured on Protein A chip
# T1 construct: extracellular domain; also called human CD3ε-His; CD3ε antigen protein; not shown: His tag
# T1 sequence (P07766 23-126): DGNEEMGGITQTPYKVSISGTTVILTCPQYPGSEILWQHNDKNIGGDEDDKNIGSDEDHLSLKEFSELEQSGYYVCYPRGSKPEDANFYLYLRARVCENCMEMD
# [2] = molecular target: T2, cynomolgus monkey CD3 on the surface of expanded monkey T cells (cynomolgus monkey, UniProt Q95LI5 22-198; Q95LI8 22-171; Q95LI7 23-181); assay: FACS, expanded monkey T cells
# T2 construct: whole, on cells; Endogenous CD3 within the TCR-CD3 complex on T cells expanded from cynomolgus monkey PBMC
# T2 sequence (Q95LI5 22-198, chain 1 of 3): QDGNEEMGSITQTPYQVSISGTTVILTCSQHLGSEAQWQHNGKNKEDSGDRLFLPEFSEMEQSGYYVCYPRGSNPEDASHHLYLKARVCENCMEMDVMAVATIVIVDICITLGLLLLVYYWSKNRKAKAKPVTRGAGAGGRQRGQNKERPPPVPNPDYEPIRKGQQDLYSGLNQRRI
# T2 sequence (Q95LI8 22-171, chain 2 of 3): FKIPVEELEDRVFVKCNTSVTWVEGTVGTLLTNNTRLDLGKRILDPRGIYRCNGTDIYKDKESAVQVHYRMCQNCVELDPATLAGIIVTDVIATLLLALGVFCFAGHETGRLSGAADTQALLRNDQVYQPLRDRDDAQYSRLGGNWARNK
# T2 sequence (Q95LI7 23-181, chain 3 of 3): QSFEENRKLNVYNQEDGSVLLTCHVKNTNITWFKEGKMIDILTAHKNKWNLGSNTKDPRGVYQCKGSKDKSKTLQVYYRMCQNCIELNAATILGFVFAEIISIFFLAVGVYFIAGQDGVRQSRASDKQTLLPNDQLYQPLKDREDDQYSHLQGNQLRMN
# Description: The binding of the chimeric antibodies to CD3 on the cell surface was analyzed by detecting the binding of the antibodies to Jurkat cells and human T cells. Suspension cells Jurkat cells were scale-up cultured in T-75 cell culture flasks to the logarithmic growth phase, the supernatant of the medium was discarded by centrifugation, and the cell pellet was washed 2 times with PBS for later use. The expanded human T cells were washed 2 times with PBS for later use. After counting the cells in the previous step, the cell pellet was resuspended with [PBS+2% (w/w) BSA] blocking solution to 4×10⁶ cells/ml, and added to a 96-well FACS reaction plate at 50 μl/well, and then the chimeric antibody to be tested was added at 50 μl/well, and incubated at 4° C. for 1 h. The cells were centrifuged and washed 3 times with a PBS buffer. […] The cells were centrifuged and washed 5 times with PBS, and FACS (FACS Canto™, purchased from BD Company) was used for detection and result analysis. Data analysis was performed by software (CellQuest) to obtain the mean fluorescence […] (MFI) of the cells. And then software (GraphPad Prism8) was used for analysis, data fitting, and EC50 value calculation. The same method was used to simultaneously detect the binding of the chimeric antibodies to endogenous CD3 negative cells MOLT4 cells. […]
# [3] = molecular target: T2, cynomolgus monkey CD3 on the surface of …; assay: FACS, expanded monkey T cells; remark: listed apart in the source
# Description: The binding of the chimeric antibodies to CD3 on the cell surface was analyzed by detecting the binding of the antibodies to Jurkat cells and human T cells. Suspension cells Jurkat cells were scale-up cultured in T-75 cell culture flasks to the logarithmic growth phase, the supernatant of the medium was discarded by centrifugation, and the cell pellet was washed 2 times with PBS for later use. The expanded human T cells were washed 2 times with PBS for later use. After counting the cells in the previous step, the cell pellet was resuspended with [PBS+2% (w/w) BSA] blocking solution to 4×10⁶ cells/ml, and added to a 96-well FACS reaction plate at 50 μl/well, and then the chimeric antibody to be tested was added at 50 μl/well, and incubated at 4° C. for 1 h. The cells were centrifuged and washed 3 times with a PBS buffer. […] The cells were centrifuged and washed 5 times with PBS, and FACS (FACS Canto™, purchased from BD Company) was used for detection and result analysis. Data analysis was performed by software (CellQuest) to obtain the mean fluorescence […] (MFI) of the cells. And then software (GraphPad Prism8) was used for analysis, data fitting, and EC50 value calculation. The same method was used to simultaneously detect the binding of the chimeric antibodies to endogenous CD3 negative cells MOLT4 cells.
# FACS detection and data analysis were performed on the cryopreserved monkey T cells of Example 2.4 according to the method in Example 5.1.
# human CD3ε/δ-His = molecular target: T3, human CD3ε/δ-His (human, UniProt P07766 23-126; P04234 22-105); assay: SPR, antibody captured on Protein A chip
# T3 construct: Bought recombinant heterodimer with His tag; also called human CD3ε/δ protein
# T3 sequence (P07766 23-126, stated change not applied, form in doubt, chain 1 of 2): as the sequence (P07766 23-126) above
# T3 sequence (P04234 22-105, stated change not applied, form in doubt, chain 2 of 2): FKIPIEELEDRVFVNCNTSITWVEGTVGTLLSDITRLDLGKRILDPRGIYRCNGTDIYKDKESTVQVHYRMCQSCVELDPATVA
binder,measurement,setting,value
B1,Kd,[1],0.203 nM
same,koff,[1],0.000321 s⁻¹
same,kon,[1],1.58e+06 M⁻¹ s⁻¹
same,EC50,[2],0.53 nM
same,EC50,[3],0.63 nM
same,MFI_Max,[3],24100 MFI
same,Kd,human CD3ε/δ-His,21.3 nM
same,koff,human CD3ε/δ-His,0.0327 s⁻¹
same,kon,human CD3ε/δ-His,1.53e+06 M⁻¹ s⁻¹
